Values of other authors as cited in PMC12093155.

Molecular target: Prx1 (Homo sapiens) (UniProt Q06830)
Sequence (Q06830 2-199): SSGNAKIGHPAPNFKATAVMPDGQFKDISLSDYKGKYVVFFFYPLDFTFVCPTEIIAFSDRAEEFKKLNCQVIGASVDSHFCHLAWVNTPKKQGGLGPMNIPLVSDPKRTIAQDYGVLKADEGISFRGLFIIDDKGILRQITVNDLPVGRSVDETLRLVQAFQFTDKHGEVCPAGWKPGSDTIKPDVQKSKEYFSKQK

Chain of Srx (Q9BYN0 whole entry): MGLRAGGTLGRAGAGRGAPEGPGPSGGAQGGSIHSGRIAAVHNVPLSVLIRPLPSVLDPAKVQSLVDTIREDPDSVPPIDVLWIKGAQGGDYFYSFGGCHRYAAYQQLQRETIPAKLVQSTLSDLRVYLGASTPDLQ

Srx (from UniProt Q9BYN0)
Kd: 7 µM
